Numbering of substitutions follows the chain as printed.
T1: soluble CD22-Fc (R&D Systems) (UniProt P20273 20-687)
T1 construct: Bought reagent used to stain CD22 CARs; not shown: Fc part; detected with anti-human IgG Fc-gamma secondary
T1 sequence (looked up): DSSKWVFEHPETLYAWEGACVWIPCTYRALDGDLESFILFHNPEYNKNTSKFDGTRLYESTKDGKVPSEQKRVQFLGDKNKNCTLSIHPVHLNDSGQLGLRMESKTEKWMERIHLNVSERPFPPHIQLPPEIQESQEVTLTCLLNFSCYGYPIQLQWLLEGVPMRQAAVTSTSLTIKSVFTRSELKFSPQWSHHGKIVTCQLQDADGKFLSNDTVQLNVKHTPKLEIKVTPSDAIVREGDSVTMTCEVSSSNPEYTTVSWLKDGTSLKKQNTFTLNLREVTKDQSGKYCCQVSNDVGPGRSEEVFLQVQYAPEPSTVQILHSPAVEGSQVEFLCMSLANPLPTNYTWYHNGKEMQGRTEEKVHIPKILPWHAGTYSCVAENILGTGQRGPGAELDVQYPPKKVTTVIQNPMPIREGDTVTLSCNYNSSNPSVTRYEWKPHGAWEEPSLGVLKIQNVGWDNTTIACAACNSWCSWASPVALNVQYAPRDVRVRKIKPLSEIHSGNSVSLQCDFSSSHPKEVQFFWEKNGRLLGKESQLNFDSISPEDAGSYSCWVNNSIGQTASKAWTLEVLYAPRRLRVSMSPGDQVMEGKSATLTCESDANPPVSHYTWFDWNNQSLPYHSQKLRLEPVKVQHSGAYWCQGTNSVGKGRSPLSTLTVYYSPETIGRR

B1: tandem CD22/CD19 CAR construct 184 (other)
chain: EVQLQQSGPGLVKPSQTLSLTCAISGDSMLSNSDTWNWIRQSPSRGLEWLGRTYHRSTWYDDYASSVRGRVSINVDTSKNQYSLQLNAVTPEDTGVYYCARVRLQDGNSWSDAFDVWGQGTMVTVSSGGGGSQSALTQPASASGSPGQSVTISCTGTSSDVGGYNYVSWYQQHPGKAPKLMIYDVSNRPSGVSNRFSGSKSGNTASLTISGLQAEDEADYYCSSYTSSSTLYVFGTGTQLTVLGGGGSEIVMTQSPATLSLSPGERATLSCRASQDISKYLNWYQQKPGQAPRLLIYHTSRLHSGIPARFSGSGSGTDYTLTISSLQPEDFAVYFCQQGNTLPYTFGQGTKLEIKGGGGSGGGGSGGGGSQVQLQESGPGLVKPSETLSLTCTVSGVSLPDYGVSWIRQPPGKGLEWIGVIWGSETTYYQSSLKSRVTISKDNSKNQVSLKLSSVTAADTAVYYCAKHYYYGGSYAMDYWGQGTLVTVSSTTTPAPRPPTPAPTIASQPLSLRPEACRPAAGGAVHTRGLDFACDIYIWAPLAGTCGVLLLSLVITLYCKRGRKKLLYIFKQPFMRPVQTTQEEDGCSCRFPEEEEGGCELRVKFSRSADAPAYQQGQNQLYNELNLGRREEYDVLDKRRGRDPEMGGKPRRKNPQEGLYNELQKDKMAEAYSEIGMKGERRRGKGHDGLYQGLSTATKDTYDALHMQALPPR
notes: Distal anti-CD22 scFv H/L short linker, GGGGS, proximal anti-CD19 scFv; leader 1-21 left out; also called CG#c184; c184
B2: tandem CD22/CD19 CAR construct 186 (other)
chain: QSALTQPASASGSPGQSVTISCTGTSSDVGGYNYVSWYQQHPGKAPKLMIYDVSNRPSGVSNRFSGSKSGNTASLTISGLQAEDEADYYCSSYTSSSTLYVFGTGTQLTVLGGGGSGGGGSGGGGSEVQLQQSGPGLVKPSQTLSLTCAISGDSMLSNSDTWNWIRQSPSRGLEWLGRTYHRSTWYDDYASSVRGRVSINVDTSKNQYSLQLNAVTPEDTGVYYCARVRLQDGNSWSDAFDVWGQGTMVTVSSGGGGSEIVMTQSPATLSLSPGERATLSCRASQDISKYLNWYQQKPGQAPRLLIYHTSRLHSGIPARFSGSGSGTDYTLTISSLQPEDFAVYFCQQGNTLPYTFGQGTKLEIKGGGGSGGGGSGGGGSQVQLQESGPGLVKPSETLSLTCTVSGVSLPDYGVSWIRQPPGKGLEWIGVIWGSETTYYQSSLKSRVTISKDNSKNQVSLKLSSVTAADTAVYYCAKHYYYGGSYAMDYWGQGTLVTVSSTTTPAPRPPTPAPTIASQPLSLRPEACRPAAGGAVHTRGLDFACDIYIWAPLAGTCGVLLLSLVITLYCKRGRKKLLYIFKQPFMRPVQTTQEEDGCSCRFPEEEEGGCELRVKFSRSADAPAYQQGQNQLYNELNLGRREEYDVLDKRRGRDPEMGGKPRRKNPQEGLYNELQKDKMAEAYSEIGMKGERRRGKGHDGLYQGLSTATKDTYDALHMQALPPR
notes: Distal anti-CD22 scFv L/H, GGGGS, proximal anti-CD19 scFv; leader 1-21 left out; also called CG#c186; c186
B3: control anti-CD22 CAR CG#c175 (other)
chain: QSALTQPASASGSPGQSVTISCTGTSSDVGGYNYVSWYQQHPGKAPKLMIYDVSNRPSGVSNRFSGSKSGNTASLTISGLQAEDEADYYCSSYTSSSTLYVFGTGTQLTVLGGGGSGGGGSGGGGSEVQLQQSGPGLVKPSQTLSLTCAISGDSMLSNSDTWNWIRQSPSRGLEWLGRTYHRSTWYDDYASSVRGRVSINVDTSKNQYSLQLNAVTPEDTGVYYCARVRLQDGNSWSDAFDVWGQGTMVTVSS
notes: not shown: hinge, transmembrane, 4-1BB and CD3zeta parts of the CAR
B4: control anti-CD22 CAR CG#c170 (other)
chain: EVQLQQSGPGLVKPSQTLSLTCAISGDSMLSNSDTWNWIRQSPSRGLEWLGRTYHRSTWYDDYASSVRGRVSINVDTSKNQYSLQLNAVTPEDTGVYYCARVRLQDGNSWSDAFDVWGQGTMVTVSSGGGGSQSALTQPASASGSPGQSVTISCTGTSSDVGGYNYVSWYQQHPGKAPKLMIYDVSNRPSGVSNRFSGSKSGNTASLTISGLQAEDEADYYCSSYTSSSTLYVFGTGTQLTVL
notes: the tie is by that description, not by a printed label; not shown: hinge, transmembrane, 4-1BB and CD3zeta parts of the CAR
B5: tandem CD22/CD19 CAR construct 185 (other)
chain: QSALTQPASASGSPGQSVTISCTGTSSDVGGYNYVSWYQQHPGKAPKLMIYDVSNRPSGVSNRFSGSKSGNTASLTISGLQAEDEADYYCSSYTSSSTLYVFGTGTQLTVLGGGGSGGGGSGGGGSEVQLQQSGPGLVKPSQTLSLTCAISGDSMLSNSDTWNWIRQSPSRGLEWLGRTYHRSTWYDDYASSVRGRVSINVDTSKNQYSLQLNAVTPEDTGVYYCARVRLQDGNSWSDAFDVWGQGTMVTVSSLAEAAAKEIVMTQSPATLSLSPGERATLSCRASQDISKYLNWYQQKPGQAPRLLIYHTSRLHSGIPARFSGSGSGTDYTLTISSLQPEDFAVYFCQQGNTLPYTFGQGTKLEIKGGGGSGGGGSGGGGSQVQLQESGPGLVKPSETLSLTCTVSGVSLPDYGVSWIRQPPGKGLEWIGVIWGSETTYYQSSLKSRVTISKDNSKNQVSLKLSSVTAADTAVYYCAKHYYYGGSYAMDYWGQGTLVTVSSTTTPAPRPPTPAPTIASQPLSLRPEACRPAAGGAVHTRGLDFACDIYIWAPLAGTCGVLLLSLVITLYCKRGRKKLLYIFKQPFMRPVQTTQEEDGCSCRFPEEEEGGCELRVKFSRSADAPAYQQGQNQLYNELNLGRREEYDVLDKRRGRDPEMGGKPRRKNPQEGLYNELQKDKMAEAYSEIGMKGERRRGKGHDGLYQGLSTATKDTYDALHMQALPPR
notes: Distal anti-CD22 scFv L/H, LAEAAAK, proximal anti-CD19 scFv; leader 1-21 left out; also called CG#c185; c185
B6: tandem CD22/CD19 CAR construct 187 (other)
chain: QSALTQPASASGSPGQSVTISCTGTSSDVGGYNYVSWYQQHPGKAPKLMIYDVSNRPSGVSNRFSGSKSGNTASLTISGLQAEDEADYYCSSYTSSSTLYVFGTGTQLTVLGGGGSEVQLQQSGPGLVKPSQTLSLTCAISGDSMLSNSDTWNWIRQSPSRGLEWLGRTYHRSTWYDDYASSVRGRVSINVDTSKNQYSLQLNAVTPEDTGVYYCARVRLQDGNSWSDAFDVWGQGTMVTVSSLAEAAAKEIVMTQSPATLSLSPGERATLSCRASQDISKYLNWYQQKPGQAPRLLIYHTSRLHSGIPARFSGSGSGTDYTLTISSLQPEDFAVYFCQQGNTLPYTFGQGTKLEIKGGGGSGGGGSGGGGSQVQLQESGPGLVKPSETLSLTCTVSGVSLPDYGVSWIRQPPGKGLEWIGVIWGSETTYYQSSLKSRVTISKDNSKNQVSLKLSSVTAADTAVYYCAKHYYYGGSYAMDYWGQGTLVTVSSTTTPAPRPPTPAPTIASQPLSLRPEACRPAAGGAVHTRGLDFACDIYIWAPLAGTCGVLLLSLVITLYCKRGRKKLLYIFKQPFMRPVQTTQEEDGCSCRFPEEEEGGCELRVKFSRSADAPAYQQGQNQLYNELNLGRREEYDVLDKRRGRDPEMGGKPRRKNPQEGLYNELQKDKMAEAYSEIGMKGERRRGKGHDGLYQGLSTATKDTYDALHMQALPPR
notes: Distal anti-CD22 scFv L/H short linker, LAEAAAK, proximal anti-CD19 scFv; leader 1-21 left out; also called CG#c187; c187
B7: tandem CD22/CD19 CAR construct 188 (other)
chain: QSALTQPASASGSPGQSVTISCTGTSSDVGGYNYVSWYQQHPGKAPKLMIYDVSNRPSGVSNRFSGSKSGNTASLTISGLQAEDEADYYCSSYTSSSTLYVFGTGTQLTVLGGGGSEVQLQQSGPGLVKPSQTLSLTCAISGDSMLSNSDTWNWIRQSPSRGLEWLGRTYHRSTWYDDYASSVRGRVSINVDTSKNQYSLQLNAVTPEDTGVYYCARVRLQDGNSWSDAFDVWGQGTMVTVSSGGGGSEIVMTQSPATLSLSPGERATLSCRASQDISKYLNWYQQKPGQAPRLLIYHTSRLHSGIPARFSGSGSGTDYTLTISSLQPEDFAVYFCQQGNTLPYTFGQGTKLEIKGGGGSGGGGSGGGGSQVQLQESGPGLVKPSETLSLTCTVSGVSLPDYGVSWIRQPPGKGLEWIGVIWGSETTYYQSSLKSRVTISKDNSKNQVSLKLSSVTAADTAVYYCAKHYYYGGSYAMDYWGQGTLVTVSSTTTPAPRPPTPAPTIASQPLSLRPEACRPAAGGAVHTRGLDFACDIYIWAPLAGTCGVLLLSLVITLYCKRGRKKLLYIFKQPFMRPVQTTQEEDGCSCRFPEEEEGGCELRVKFSRSADAPAYQQGQNQLYNELNLGRREEYDVLDKRRGRDPEMGGKPRRKNPQEGLYNELQKDKMAEAYSEIGMKGERRRGKGHDGLYQGLSTATKDTYDALHMQALPPR
notes: Distal anti-CD22 scFv L/H short linker, GGGGS, proximal anti-CD19 scFv; leader 1-21 left out; also called CG#c188; c188
B8: control anti-CD22 CAR CG#c176 (other)
chain: QSALTQPASASGSPGQSVTISCTGTSSDVGGYNYVSWYQQHPGKAPKLMIYDVSNRPSGVSNRFSGSKSGNTASLTISGLQAEDEADYYCSSYTSSSTLYVFGTGTQLTVLGGGGSEVQLQQSGPGLVKPSQTLSLTCAISGDSMLSNSDTWNWIRQSPSRGLEWLGRTYHRSTWYDDYASSVRGRVSINVDTSKNQYSLQLNAVTPEDTGVYYCARVRLQDGNSWSDAFDVWGQGTMVTVSS
notes: as for B3
B9: CD22-62 CAR (other)
chain: EVQLQQSGPGLVKPSQTLSLTCAISGDSVLSNSDTWNWIRQSPSRGLEWLGRTYHRSTWYDDYASSVRGRVSINVDTSKNQYSLQLNAVTPEDTGVYYCARDRLQDGNSWSDAFDVWGQGTMVTVSSGGGGSGGGGSGGGGSQSALTQPASVSGSPGQSITISCTGTSSDVGGYNYVSWYQQHPGKAPKLMIYDVSNRPSGVSNRFSGSKSGNTASLTISGLQAEDEADYYCSSYTSSSTLYVFGTGTKVTVL
notes: CAR on primary human T cells; not shown: hinge, transmembrane, 4-1BB and CD3zeta parts of the CAR
B10: CD22-60 CAR (other)
chain: B9 chain with G139S, I162F, V171I, D194E, S209T, V250L
notes: as for B9
B11: CD22-59 CAR (other)
chain: EVQLQQSGPGLVKPSQTLSLTCAISGDSVLSNSDTWNWIRQSPSRGLEWLGRTYHRSTWYDDYASSVRGRVSINVDTSKNQYSLQLNAVTPEDTGVYYCARDRLQDGNSWSDAFDVWGQGTMVTVSSGGGGSGGGGSGGGGSQSALTQPASVSGSPGQSITISCTGSSSDIGGFNYVSWYQQHAGEAPKLMIYEVTNRPSGVSDRFSGSKSDNTASLTISGLQAEDEADYYCSSYASGSPLYVFGTGTKVTVL
notes: as for B9

molecular target: T1, soluble CD22-Fc (R&D Systems); assay: FACS surface staining of transduced JNL cells with CD22-Fc

binding result	Binder
binds	B1
binds	B2
binds	B3
binds	B4
binds	B5
binds	B6
binds	B7
binds	B8

molecular target: T1, soluble CD22-Fc (R&D Systems); assay: flow cytometry, soluble CD22-Fc plus anti-human Fc-PE on CAR-transduced primary T cells (FIG. 4)

MFI	Binder
> 20000	B9
> 20000	B10
> 20000	B11
